Here are results for five substances from PMC4424350, “Unraveling the Specific Regulation of the Central Pathway for Anaerobic Degradation of 3-Methylbenzoate” (The Journal of Biological Chemistry, 2015).

Data set [1] relates to T1, MbdR-His6 (Azoarcus sp. CIB), ORF:e0c75ca7.
T1 sequence: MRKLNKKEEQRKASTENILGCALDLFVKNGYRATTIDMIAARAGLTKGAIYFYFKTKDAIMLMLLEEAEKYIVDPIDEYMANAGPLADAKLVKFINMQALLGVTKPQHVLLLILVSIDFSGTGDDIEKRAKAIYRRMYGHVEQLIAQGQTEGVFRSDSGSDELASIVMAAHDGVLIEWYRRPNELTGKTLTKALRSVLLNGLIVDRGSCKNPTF
Description: EMSA. The conditions noted are these: EMSA: 20 mM Tris-HCl pH 7.5, 10% glycerol, 50 mM KCl, 0.05 nM probe, 250 ug/ml BSA, 50 ug/ml salmon sperm DNA, 20 min 30 C; footprinting: same buffer, 2 nM ….

The test system is the same in data set [2]. Description: DNase I footprinting. Particulars: EMSA: 20 mM Tris-HCl pH 7.5, 10% glycerol, 50 mM KCl, 0.05 nM probe, 250 ug/ml BSA, 50 ug/ml salmon sperm DNA, 20 min 30 C; footprinting: same buffer, 2 nM ….
Data set [3] concerns the target MbdR-His6 protein (Azoarcus sp. CIB). Description: AUC; sedimentation velocity (48,000 rpm, 20 °C) and sedimentation equilibrium (5000 to 15,000 rpm) of MbdR-His6 at 11 to 46 μM in 50 mM NaH2PO4, 300 mM KCl, 20 mM imidazole, pH 8; data not shown.
Data set [4] relates to MbdR-His6 (Azoarcus sp. CIB). Briefly: EMSA. Particulars: relative Kd; EMSA: 20 mM Tris-HCl pH 7.5, 10% glycerol, 50 mM KCl, 0.05 nM probe, 250 ug/ml BSA, 50 ug/ml salmon sperm DNA, 20 min 30 C; footprinting: same buffer, 2 nM ….

pKd: −log10 of the molar value.

For “AATTCCCTGCGCGCGGCACTATGTCGGGGGAAATTCAGTCATTGCGGAAAACGGCGTTTCCGCGAGCTCGCCAACAAAAGGTCTGACAGCCCCGGTCCCCACATGCGGCTACCATATACCGGCTGGCTGGTATGTGTCAACGACTGATACGGAAGACCTCGAAATCGGAGGGAGGAAAATGGGAAAAGGACCTTTGAGAGCATGGACGGCGCATGGCGAGGAGATGGTATTACGGTAAGTGCTCCACGAGT (double strand) [PB1 probe (251 bp)]”, in data set [1], the pKd is 8.43. Besides, the binding entry in data set [2] is given as “binds”.
Regarding “ACTGAGGCCCCGCCCAAGTTTTCATTATCTCTAGTACCGGCAAAGAAGGGCCAAACAGATCTATTGCATACTATCCGGTTAGTACGTCTTTTGACCAATTGATCTACACGAGGGGAAACCATGTTCGAGAATTTCAACCATAGTGCTCTGCGTCTTGGAGCGCCAGGCGCTTTAGCGCAGCGTTTGCTGCCGAAGCATCAGGGTCACTATGTTGATGCGCATTGAGGGAATT (double strand) [PA probe (225 bp)]”, the binding result in data set [1] and in data set [2] was “binds” in each case.
In data set [3], MbdR-His6 protein (natural protein) registered a stoichiometry N of 2.
In data set [4], PB1 probe (251 bp) had a pKd of 8.43.
Still for that read-out and setting: the same measure for PO probe (271 bp): 8.77.
